Assay results from PMC9798557 (2022).

Assays:
[1] = target: T1, CD38 on CD38-positive cell lines (human, UniProt P28907 1-300); test: FACS; MOLP-8 cells
[2] = target: T1, CD38 on CD38-positive cell lines; test: FACS; RPMI 8226 cells
[3] = target: T1, CD38 on CD38-positive cell lines; test: FACS; Daudi cells
[4] = target: T1, CD38 on CD38-positive cell lines; test: FACS; Ramos cells
[5] = target: T1, CD38 on CD38-positive cell lines; test: FACS; MM1S cells
[6] = target: T1, CD38 on CD38-positive cell lines; test: FACS; SU-DHL-6 cells
[7] = target: T1, CD38 on CD38-positive cell lines; test: FACS; H929 cells
[8] = target: T1, CD38 on CD38-positive cell lines; test: FACS; Raji cells

B1: daratumumab (antibody, V domains shown)
VH: EVQLLESGGGLVQPGGSLRLSCAVSGFTFNSFAMSWVRQAPGKGLEWVSAISGSGGGTYYADSVKGRFTISRDNSKNTLYLQMNSLRAEDTAVYFCAKDKILWFGEPVFDYWGQGTLVTVSS
VL: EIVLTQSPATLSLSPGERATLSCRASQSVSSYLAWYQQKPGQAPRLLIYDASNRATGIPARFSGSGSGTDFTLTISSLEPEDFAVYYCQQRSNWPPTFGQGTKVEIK
B1 was tested, and the EC50 [1] was 0.28 µg/mL, the EC50 [2] was 1.19 µg/mL and the EC50 [3] was 0.289 µg/mL. The EC50 [4] was 0.74 µg/mL, the EC50 [5] was 0.581 µg/mL and the EC50 [6] was 0.548 µg/mL. It also gave an EC50 [7] of 0.767 µg/mL and an EC50 [8] of 0.321 µg/mL.
